Reference: publication PMC3942423 (Nature chemical biology, 2009)

How the values were obtained:
Assay type in all cases: biochemical, Bacteroides thetaiotaomicron
[1] = system: GH92 enzymes; test: EDTA inactivation and metal reactivation; settings: all the GH92 enzymes analyzed
[2] = substrate: O=[N+]([O-])c1ccc(O[C@H]2O[C@H](CO)[C@@H](O)[C@H](O)[C@@H]2O)cc1; test: 4NP-Man hydrolysis kinetics; settings: other: substrate 4NP-Man
[3] = substrate: OC[C@H]1O[C@H](O[C@H]2[C@H](O)[C@H](O)[C@@H](O)O[C@@H]2CO)[C@@H](O)[C@@H](O)[C@@H]1O; test: mannobiose hydrolysis kinetics; settings: other: most active mannobiose substrate

How did the “effect on enzyme activity” value [1] turn out when O=C(O)CN(CCN(CC(=O)O)CC(=O)O)CC(=O)O [EDTA] was run?
Its value is “inactivated”.

For [Ca+2] [calcium], which “recovery of activity after EDTA” value [1] is on record?
The value was “fully recovered”.

B1: Bt4073 (Bacteroides thetaiotaomicron VPI-5482) (protein)
chain: GVVTEDLIPTDYVNPFIGASTSVGAAGVYHGLGKTFPGATTPYGMVQVSPNTITGGDNSSGYSDEHKTIEGFAFTQMSGVGWFGDLGNFLVMPTTGELQKIAGKEDGSIKGYRSSYDKATETAKAGYYSVELTDYKIKVESSATPHCGILQFTFPSNEQSRIQIDLARRVGGTSTSQYVKVLDDYTIQGWMKCTPDGGGWGNGEGNSDYTVYYYAQFSKPLSNYGFWSADIPDEWVRKRDEVVSIPYLTRISQAPVIKDKKELEGKHLGFFTEFPTKEGEQVEMKVGISFVDMEGAANNFKQEIASKNFAQVKQEASDLWNKELSRIRISGGTDDEKTVFYTSLYHTMIDPRIYTDVDGRYIGGDKKVHEQDGTFTKRTIFSGWDVFRSQFPLQAMINPRLVSDALNSLITMADQSRREYYERWELLNSYSGCMIGNPALSVLADAYMKGIRTYDVEKAYQYAVNTSAKFGNDSLGYTPEPLSISYTLEYAYADWCVAQLAKALGKEEDAKRFYEKGQAYRNMFDAEKGWFRPRNADGSWKAWPENALTEEWYGCIESNAYQQGWFVPHDVPGMVELMGGKEEVIANLTNLFDHTPSDMLWNDYYNHANEPVHFVPFLFNQLDVPWYTQKWTRYICKNAYANKVEGIVGNEDVGQMSAWYILAASGIHPSCPGNTRMEITSPVFDKVEFNLDSKYHQGKVFTIIAHNNNTNNLYIQKALLNGKEYNKCYLDFAEIAAGGTLELFMGDKPNTEWGVLSNI
With B1 as the molecule, how does the Km ([2]; enzyme Bt4073, pH 7.0) read?
The Km was 1800 ± 210 µM.

And the kcat ([2]; enzyme Bt4073, pH 7.0)?
Its kcat is 0.0045 ± 0.000233 s⁻¹.

What about the kcat/Km ([2]; enzyme Bt4073, pH 7.0) of the same molecule?
The kcat/Km was 2.33 M⁻¹ s⁻¹.

And the Km ([3]; enzyme Bt4073, pH 7.0)?
Its Km is 270 ± 49 µM.

What about the kcat ([3]; enzyme Bt4073, pH 7.0) of the same molecule?
Its kcat is 183 ± 9.33 s⁻¹.

What about the kcat/Km ([3]; enzyme Bt4073, pH 7.0) of the same molecule?
Its kcat/Km is 683000 M⁻¹ s⁻¹.

B2: Bt4093 (Bacteroides thetaiotaomicron VPI-5482) (protein)
chain: GDYVHQVNTLIGTKGTGLTSGYLYPGATYPYGMVQFTPSYFSKRSGFVINQLSGGGCEHMGNFPTFPVKGKLKMSPDNILNYRINVSEEKGHAGYYEAMVQEDIKAKLTVTERTGMASYEYPADQQYGTIIIGGGISATPIEQAAIVITAPNKCEGYAEGGNFCGLRTPYKVYFVAEFDTDAFETGTWKREELMPNTTFAEGEYSGVYFTFDVNKKKNIQYKIGVSYVSVENARENLKAENAEWDFQKIQNQAEAKWNHYLGMIEVEGTNPDRTTQFYTHLYRSFIHPNVCSDVNGEYMGADFRVHKSRSKHYTSFSNWDTYRTQIQLLSMLDPEVASDIVISHQLFAEQSGGSFPRWVMANIETGVMQGDPTPILIANAYAFGARNYDPKPIFKIMRKGAEEPGSKSQDVETRPGLKQYLDKGYYNASIQLEYTSADFAIGQFALHAVGDEFASWRYFHFARSWKNLYNSDTGWLQSRNPDGSWKSLGEDFRESTYKNYFWMVPYDIAGLVEIIGGKEKAEKRLDEFFTRLDAGYNDAWFASGNEPSFHIPWIYNWIGRPYKTQEIINRVLNEQYSSKIDGLPGNDDLGTMGAWYVFACIGLYPEIPGVGGFTVNTPIFSSVKVHLKKGDIVIKGGSEKDIYIKSMKLNGKSYESTWIDWDQLNSGATIEYRTSGKPDMKWGAKVVPPSFP
With B2 as the molecule, how does the Km ([2]; enzyme Bt4093, pH 7.0) read?
Its Km is 1300 ± 190 µM.

What about the kcat ([2]; enzyme Bt4093, pH 7.0) of the same molecule?
The kcat was 0.0112 ± 0.000817 s⁻¹.

And the kcat/Km ([2]; enzyme Bt4093, pH 7.0)?
The kcat/Km was 9.08 M⁻¹ s⁻¹.

And the Km ([3]; enzyme Bt4093, pH 7.0)?
Its Km is 35000 ± 2400 µM.

What about the kcat ([3]; enzyme Bt4093, pH 7.0) of the same molecule?
The kcat was 1.33 ± 0.065 s⁻¹.

And the kcat/Km ([3]; enzyme Bt4093, pH 7.0)?
The kcat/Km was 38.3 M⁻¹ s⁻¹.
